Eleven sequences from the supplement of paper PMC9170038 can be followed below.

The subject of this series is MS2 coat protein. The series is described as follows: apparent KD of MS2 coat protein; designed switch direction (-1 OFF switch, 1 ON switch): 1; higher = weaker reporter binding. The method in brief: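 On Illumina chips, designed RNA switches with common flanks were made by stalled E. coli RNA polymerase. Titrations with SNAP-549-labelled MS2 coat protein, doubling from 0.7 or 1.5 nM to 3 µM, were done with no input, with 200 uM small-molecule ligand, or with an oligonucleotide input. Apparent KD is the median per design over clusters, from curve fits of normalised cluster fluorescence.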

Where [1] appears, read: input ligand: microRNA oligo, concentration not stated.

Take “GUAGCAUACCGAGGAUAUUCAUAUUACAUGAGGAUCACCCAUGUUAUUUAGGCCAAAAGGCCUUGGGAGAAGGCGGAAUGCUAC [Xeonanis - 20 Mod8] (Eterna round: R96, puzzle: Same State NG 2)”: the “apparent KD of MS2 coat protein” value was determined as 9.39 nM (input ligand: FMN 200 uM), 9.17 nM under setting [1] and 18.2 nM (input ligand: none).

As to “GUAGCAUACCGAGGAUAUUCAUUACAUGAGGAUCACCCAUGUUAGGCCAGCAUUAGCUGGCCUUGGGAGAAGGCGGAAUGCUAC [Xeonanis - 20 Mod53] (Eterna round: R96, puzzle: Same State NG 2)”, the “apparent KD of MS2 coat protein” value is, setting by setting: (input ligand: FMN 200 uM) 14 nM; under setting [1], 29.1 nM; (input ligand: none) 37.8 nM.

“GUAGCAUACCGAGGAUAUUCAUUACAUGAGGAUCACCCAUGUUUAAAUAAUAGGCGAAAGCCUUGGGAGAAGGCGGAAUGCUAC [Xeonanis - 20 Mod71] (Eterna round: R96, puzzle: Same State NG 2)”: the “apparent KD of MS2 coat protein” value was 10.9 nM (input ligand: FMN 200 uM), 10.1 nM under setting [1] and 14 nM (input ligand: none).

For the sequence “GUAGCAUGCAGGCAGGAUAUUCAUAUUAAAACAUGAGGAUCACCCAUGUAGGCCAAAAGGCCUUGGGAGAAGGGCCACAUGCUAC [Xeonanis - 19] (Eterna round: R96, puzzle: Same State 2)”, the “apparent KD of MS2 coat protein” value runs as follows: (input ligand: FMN 200 uM) 35.7 nM; under setting [1], 337 nM; (input ligand: none) 424 nM.

Take “GUAGCAUGCAGGCAGGAUAUUCAUAUUAAAACAUGAGGAUCACCCAUGUAGGCCAAAAGGCCUUGGGAGAAGGGCCACAUGCUAC [Xeonanis - 19] (puzzle: Same State 2)”: the “apparent KD of MS2 coat protein” value by setting is: (Eterna round: R95, input ligand: FMN 200 uM) 34.9 nM; (Eterna round: R95, input ligand: microRNA oligo, concentration not stated) 488 nM; (Eterna round: R95, input ligand: none) 842 nM.

Take “GUCCAAAACACAGGAUAUCCCGGUCAAAAUCCGGGAGAAGGGUGGCCACAUGAGGAUCACCCAUGUGACGUGCGAGAGGCACGA [Diessorire] (Eterna round: R96, puzzle: Same State NG 1)”: the “apparent KD of MS2 coat protein” value (input ligand: FMN 200 uM) was 118 nM, the “apparent KD of MS2 coat protein” value under setting [1] was determined as 318 nM and the “apparent KD of MS2 coat protein” value (input ligand: none) is 540 nM.

With “GUCGGUCUGUCGUGCUGUGGUGAUAGUUAACAUGAGGAUCACCCAUGUUGCUUUCGGGUCGUUGGGAGUUUUUUUCG [Modxample 121 - Jieux - Sensor for bsa-mir-208a] (Eterna round: R96, puzzle: Sensor for hsa-mir-208a)”, the “apparent KD of MS2 coat protein” value stood at 63.1 nM (input ligand: FMN 200 uM), 43.9 nM under setting [1] and 64 nM (input ligand: none).

Regarding “GUGGAGGGUUGAGGAUAUUGAUUGCAUAUGUUUAACAUGAGGAUCACCCAUGUGGGUUGCGGUUUCGAGAAGGUAGGUUGCUGG [salish99_SSNG2_r04_042] (Eterna round: R96, puzzle: Same State NG 2)”, the “apparent KD of MS2 coat protein” value is 80.8 nM (input ligand: FMN 200 uM), 59.4 nM under setting [1] and 72.2 nM (input ligand: none).

As to “GUGGUCAGACAUGAGGAUCACCCAUGUGGAAUAAAUAACACACAGGAUAUGGAAUAUAAAAUAUACCAGAAGGGUGGAUUGGUG (Eterna round: R96, puzzle: Same State NG 3)”, the “apparent KD of MS2 coat protein” value reads like this: (input ligand: FMN 200 uM) 157 nM; under setting [1], 226 nM; (input ligand: none) 326 nM.

Consider “GUGGUCAGACAUGAGGAUCACCCAUGUGGAAUAAAUAACGGACAGGAUAUAAAAUAUAGGAUAUAUUAGAAGGGUUGAUUGGUG (Eterna round: R96, puzzle: Same State NG 3)”, for which the “apparent KD of MS2 coat protein” value is, setting by setting: (input ligand: FMN 200 uM) 43.7 nM; under setting [1], 38.1 nM; (input ligand: none) 68.4 nM.

In the case of “GUGGUCAGACAUGAGGAUCACCCAUGUGGAAUAAAUAACGGACAGGAUAUAGAAUAUAGGAUAUACUAGAAGGGUUGAUUGGUG (Eterna round: R96, puzzle: Same State NG 3)”, the “apparent KD of MS2 coat protein” value under setting [1] was found to be 45.1 nM.
